Results on ten substances are retold here after US20260049105A1, “SELECTIVE MC4R LIGAND FOR TREATING OBESITY AND COGNITIVE LOSS” (ARIZONA BOARD OF REGENTS ON BEHALF OF THE UNIVERSITY OF …, priority 2022, published 2026).

Like-named read-outs stand apart in the source and are kept apart here.

For assay [1], the target named is human melanocortin 3 receptor (human) (UniProt P41968). The assay can be described thus: competition with 125I-NDP-α-MSH, cells expressing hMC3R.
Assay [2] has as its target human melanocortin 5 receptor (human) (UniProt P33032). The assay can be described thus: competition with 125I-NDP-α-MSH, cells expressing hMC5R.
The target is the same in assay [3]. The assay can be described thus: cell-based or functional assay.
Assay [4] has as its target human melanocortin 3 receptor (human) (UniProt P41968). The assay can be described thus: cell-based or functional assay.
The target in assay [5] is human melanocortin 4 receptor (human) (UniProt P32245). The assay can be described thus: cell-based or functional assay.
Sequence of human melanocortin 4 receptor (human) (P32245 whole entry): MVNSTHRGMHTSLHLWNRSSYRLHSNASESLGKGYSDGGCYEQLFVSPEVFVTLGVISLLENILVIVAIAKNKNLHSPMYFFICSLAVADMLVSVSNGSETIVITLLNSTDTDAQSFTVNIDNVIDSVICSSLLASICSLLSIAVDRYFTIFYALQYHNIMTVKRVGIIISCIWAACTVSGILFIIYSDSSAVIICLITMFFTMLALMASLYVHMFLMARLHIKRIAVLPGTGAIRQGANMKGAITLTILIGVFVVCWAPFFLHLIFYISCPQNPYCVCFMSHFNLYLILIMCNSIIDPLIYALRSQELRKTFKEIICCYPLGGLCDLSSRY
Assay [6] has as its target human melanocortin 1 receptor (human) (UniProt Q01726). The assay can be described thus: cell-based or functional assay.
The target in assay [7] is human melanocortin 4 receptor (human) (UniProt P32245). The experiment in a line: competition with 125I-NDP-α-MSH on whole HEK293 cells expressing hMC4R.
The target of assay [8] is human melanocortin 1 receptor (human) (UniProt Q01726). The experiment in a line: competition with 125I-NDP-α-MSH, cells expressing hMC1R.
Sequence of human melanocortin 1 receptor (human) (Q01726 whole entry): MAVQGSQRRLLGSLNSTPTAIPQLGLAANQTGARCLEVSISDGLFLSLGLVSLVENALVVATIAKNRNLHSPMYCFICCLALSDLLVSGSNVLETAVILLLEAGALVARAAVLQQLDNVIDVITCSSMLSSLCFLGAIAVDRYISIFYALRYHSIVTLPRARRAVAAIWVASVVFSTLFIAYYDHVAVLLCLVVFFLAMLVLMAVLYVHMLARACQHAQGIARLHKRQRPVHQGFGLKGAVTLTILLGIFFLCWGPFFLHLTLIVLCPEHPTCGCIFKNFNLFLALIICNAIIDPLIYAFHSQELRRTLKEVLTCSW
Assay [9] deals with human melanocortin 4 receptor (human) (UniProt P32245). The assay can be described thus: plasmon waveguide resonance, hMC4R membranes.
Assay [10] has the same target. The experiment in a line: competition with 125I-NDP-α-MSH, ratio of IC50 values.
The target is the same in assay [11]. The experiment in a line: competition with 125I-NDP-α-MSH on whole HEK293 cells expressing hMC4R. The source holds these as a separate data set.

Sequence of human melanocortin 5 receptor (human) (P33032 whole entry): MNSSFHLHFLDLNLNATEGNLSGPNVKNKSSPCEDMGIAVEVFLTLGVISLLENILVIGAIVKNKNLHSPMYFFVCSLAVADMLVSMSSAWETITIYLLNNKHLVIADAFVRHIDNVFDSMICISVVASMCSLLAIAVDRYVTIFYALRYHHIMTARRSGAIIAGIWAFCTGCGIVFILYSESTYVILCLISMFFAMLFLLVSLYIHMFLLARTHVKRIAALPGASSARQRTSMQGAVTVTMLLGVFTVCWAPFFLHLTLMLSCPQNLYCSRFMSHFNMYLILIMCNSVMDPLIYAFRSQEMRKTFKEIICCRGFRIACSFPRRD
Sequence of human melanocortin 3 receptor (human) (P41968 whole entry): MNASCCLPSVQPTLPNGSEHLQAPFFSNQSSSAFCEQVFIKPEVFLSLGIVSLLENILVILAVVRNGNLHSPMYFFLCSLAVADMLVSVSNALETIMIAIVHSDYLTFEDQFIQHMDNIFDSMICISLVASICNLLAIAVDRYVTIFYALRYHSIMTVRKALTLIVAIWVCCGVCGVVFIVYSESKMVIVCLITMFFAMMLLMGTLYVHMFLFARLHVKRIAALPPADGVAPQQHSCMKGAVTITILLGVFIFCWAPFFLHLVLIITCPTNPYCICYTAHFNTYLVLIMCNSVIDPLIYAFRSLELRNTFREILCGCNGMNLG

Regarding “Ac-Arg-cyclo[Asp-Pip-D-Phe(4-Cl)-Arg-βTrp-Lys]-NH2 (peptide)”, the BE % (percent NDP-α-MSH displacement at 10 µM) in assay [1] is 70%; in assay [2], 0%; in [8] it was 100%. Further, the values for the 50% inhibitory concentration (IC50) in assay [1], in [7] and in assay [8] were 37 nM, 10 nM and 0.9 nM, respectively. The Act % stood at 21% in [3], 24% in assay [4], 57% in [5] and 67% in [6]. In addition, the EC50 (nM), cAMP accumulation in [3] was above 1000 nM; in assay [4], above 1000 nM; in assay [5] it was 240 nM; in [6], 99 nM. In assay [7], this substance gave a BE% (percent [125I]NDP-α-MSH displacement at 10 µM) of 100%.
Regarding “Ac-Arg-cyclo[Asp-Pip-D-Phe(4-Cl)-βArg-Trp-Lys]-NH2 (peptide)”, the BE % (percent NDP-α-MSH displacement at 10 µM) in assay [1] turned out to be 100%; in assay [2] it was 0%; in [8] it was 100%. In addition, the half-inhibitory concentration (IC50) (in general, the concentration that inhibits the measured activity by half) in [1] was 108 nM; in assay [7], 8 nM; in assay [8] it was 5 nM. Besides, the Act % in assay [3] stood at 38%; in assay [4], 46%; in assay [5], 66%; in assay [6] it was 89%. Further, the EC50 (nM), cAMP accumulation was above 1000 nM in [3], 360 nM in assay [4], 110 nM in assay [5] and 130 nM in [6]. In [7], this substance displayed a BE% (percent [125I]NDP-α-MSH displacement at 10 µM) of 100%.
“Ac-Arg-cyclo[Asp-Pip-D-Phe(4-Cl)-βArg-βTrp-Lys]-NH2 (peptide)” displayed a PWR resonance position, p-polarization (hMC4R sole 26.44) in assay [9] of 26.9 degrees. For the same substance, in assay [10], the fold higher binding affinity to hMC4R than hMC1R turned out to be 68 fold, the fold higher binding affinity to hMC4R than hMC3R was above 1000 fold and the fold higher binding affinity to hMC4R than hMC5R was above 1000 fold. In assay [1], the BE % (percent NDP-α-MSH displacement at 10 µM) is 10%. Moreover, in assay [2], the BE % (percent NDP-α-MSH displacement at 10 µM) amounted to 75% and the IC50 came to 70 nM. Besides, in assay [3], the Act % was determined as 76% and the EC50 (nM), cAMP accumulation stood at 295 nM. Further, in assay [4], the Act % was 63% and the EC50 (nM), cAMP accumulation was above 1000 nM. Also, in [5], the Act % came to 87%; the EC50 (cAMP) turned out to be 4.2 nM; the EC50 (nM), cAMP accumulation is 4 nM. In assay [6], the Act % worked out at 90% and the EC50 (nM), cAMP accumulation is 240 nM. Moreover, in assay [7], the BE% (percent [125I]NDP-α-MSH displacement at 10 µM) came to 100% and the IC50 worked out at 0.4 nM. In assay [8], this substance yielded a BE % (percent NDP-α-MSH displacement at 10 µM) of 100% and an IC50 of 27 nM.
Consider “Ac-Arg-cyclo[Asp-Pip-D-Phe(4-F)-Arg-βTrp-Lys]-NH2 (peptide)”, for which the BE % (percent NDP-α-MSH displacement at 10 µM) in [1], in assay [2] and in [8] was 100% throughout. For the same substance, the IC50 came to 117 nM in assay [1], 47 nM in assay [2] and 0.2 nM in [8]. Moreover, the Act % in assay [3] came to 72%; in assay [4], 76%; in assay [5], 46%; in assay [6] it was 90%. Moreover, the EC50 (nM), cAMP accumulation in assay [3] stood at 530 nM; in [4] it was 450 nM; in assay [5] it was 630 nM; in assay [6], 64 nM. The substance also displayed a BE% (percent [125I]NDP-α-MSH displacement at 10 µM) in [7] of 9%.
On to “Ac-Arg-cyclo[Asp-Pip-D-Phe(4-F)-βArg-βTrp-Lys]-NH2 (peptide)”, for which the values for the BE % (percent NDP-α-MSH displacement at 10 µM) in [1], in assay [2] and in assay [8] were 39%, 90% and 0%, respectively. For the same substance, the IC50 in assay [1] came out at 396 nM; in assay [2], 59 nM; in assay [7], 248 nM. Further, the Act % in assay [3] amounted to 51%; in [4], 49%; in assay [5], 120%; in assay [6] it was 61%. Also, the EC50 (nM), cAMP accumulation in assay [3], in assay [4], in [5] and in [6] was above 1000 nM throughout. Further, the BE% (percent [125I]NDP-α-MSH displacement at 10 µM) in assay [7] is 59%.
As for “Ac-Arg-cyclo[Asp-Pip-D-Phe-Arg-βTrp-Lys]-NH2 (peptide)”, the values for the BE % (percent NDP-α-MSH displacement at 10 µM) in [1], in assay [2] and in assay [8] were 60%, 66% and 100%, respectively. The IC50 in [1] was determined as 149 nM; in [2], 350 nM; in [8], 3 nM. The Act % is 95% in [3], 88% in assay [4], 63% in [5] and 88% in assay [6]. In addition, the EC50 (nM), cAMP accumulation was 580 nM in assay [3], 680 nM in [4], above 1000 nM in assay [5] and 120 nM in [6]. Also, the BE% (percent [125I]NDP-α-MSH displacement at 10 µM) in assay [7] stood at 0%.
“Ac-Arg-cyclo[Asp-Pip-D-Phe-βArg-Trp-Lys]-NH2 (peptide)”: the BE % (percent NDP-α-MSH displacement at 10 µM) stood at 24% in assay [1], 0% in assay [2] and 100% in assay [8]. Further, the IC50 in [1] came out at 600 nM; in assay [7] it was 0.4 nM; in assay [8], 0.1 nM. For the same substance, the Act % in assay [3] stood at 90%; in [4], 89%; in assay [5], 67%; in assay [6], 120%. For the same substance, the EC50 (nM), cAMP accumulation was above 1000 nM in assay [3], above 1000 nM in assay [4], 47 nM in assay [5] and 220 nM in assay [6]. Besides, in assay [7], the BE% (percent [125I]NDP-α-MSH displacement at 10 µM) stood at 100%.
In the case of “Ac-Arg-cyclo[Asp-Pip-D-Phe-βArg-βTrp-Lys]-NH2 (peptide)”, the BE % (percent NDP-α-MSH displacement at 10 µM) in [1] stood at 100%; in assay [2], 46%; in assay [8], 30%. Also, the IC50 in assay [1] amounted to 7 nM; in assay [2] it was 607 nM; in assay [7], 0.1 nM; in assay [11], 1 nM; in assay [8] it was 270 nM. For the same substance, the Act % in [3] is 82%; in [4], 87%; in [5] it was 84%; in assay [6], 82%. Moreover, the EC50 (nM), cAMP accumulation turned out to be 290 nM in assay [3], 120 nM in assay [4], 16 nM in [5] and 190 nM in [6]. Also, the BE% (percent [125I]NDP-α-MSH displacement at 10 µM) in [7] is 100%.
As to “Melanotan II, Ac-Nle-c[Asp-His-DPhe-Arg-Trp-Lys]-NH2 (peptide)”, the BE % (percent NDP-α-MSH displacement at 10 µM) in assay [1], in assay [2] and in assay [8] was 100% throughout. Also, the IC50 in [1] was 9 nM; in assay [2], 6 nM; in [8] it was 7 nM. Also, the Act % in assay [3], in assay [4], in assay [5] and in [6] was 100% in each case. Further, the EC50 (nM), cAMP accumulation in assay [3] was 2 nM; in assay [4], 3 nM; in assay [5] it was 10 nM; in assay [6], 32 nM. In assay [7], this substance gave a BE% (percent [125I]NDP-α-MSH displacement at 10 µM) of 100%.
For RM493 (peptide), in [9], the PWR left shift against hMC4R sole, p-polarization was found to be 0.25 degrees and the PWR resonance position, s-polarization (sole MC4R 33.29) was determined as 33 degrees.
